According to patent US20230285514A1, “STAPLED LACTAM CO-AGONISTS OF THE GLUCAGON AND GLP-1 RECEPTORS” (Merck Sharp & Dohme LLC, priority 2019, published 2023):
*1 amine or outer side, *2 acyl side, *3 side chain or, on linkers, in order; H or OH if unused. Bridges are numbered along the chain shown (N, C = ends). Where no end group is shown, it is not given here. Side-chain parts run from the residue outwards. [ ]: non-standard residue; d: D form. γGlu = O=C(O)[C@H](CCC(=O)[*:2])N[*:1]; Met(O2) = CS(=O)(=O)CC[C@H](N)C(=O)O; Nle = CCCC[C@H](N)C(=O)O; Aib = CC(C)(N)C(=O)O

How the values were obtained:
[1] = target: human Glucagon receptor (GCGR) (human, UniProt P47871); test: cell-based or functional assay
[2] = target: human GLP-1 receptor (GLP1R) (human, UniProt P43220); test: cell-based or functional assay

| Binder | GCGR EC50 human (nM), cAMP activity assay [1] | GLP1R EC50 human (nM), cAMP activity assay [2] |
| --- | --- | --- |
| H[Aib]QGTFTSDKSKYLD[Aib]RAAKDFVEWL[Nle]DT-NH2 (lactam 20-24; not fully specified (residue 10); printed as HUQGTFTSDK(γEγEC16)SKYLDURAAK*DFVE*WL-Nle-DT-NH2) [TP838] | 0.675 nM | 0.259 nM |
| H[dS]QGTFTSDKSKYLDKRAAEDFVQWLLDT-NH2 (lactam 16-20; not fully specified (residue 10); printed as HsQGTFTSDK(γEγEC16)SKYLDK*RAAE*DFVQWLLDT-NH2) [Peptide SEQ ID No. 10 (TP706)] | 0.089 nM | 0.107 nM |
| H[Aib]QGTFTSDKSKYLD[Aib]RAAQDFVKWL[Nle]ET-NH2 (lactam 24-28; not fully specified (residue 10); printed as HUQGTFTSDK(γEγEC16)SKYLDURAAQDFVK*WL-Nle-E*T-NH2) [TP842] | 0.248 nM | 0.237 nM |
| H[dS]QGTFTSDKSKYLDARAAQDFVKWLLET-NH2 (lactam 24-28; not fully specified (residue 10); printed as HsQGTFTSDK(γEγEC16)SKYLDARAAQDFVK*WLLE*T-NH2) [TP834] | 0.077 nM | 0.137 nM |
| H[dS]QGTFTSEK([γGlu-γGlu-C16 fatty acid])SKKLD[Aib]RAAQDFVQWLLATK(γGlu)-NH2 (lactam 9-13) [TP115] | 0.81 nM | 1.03 nM |
| H[dS]QGTFTSDKSKYLDARAAKDFVEWLLDT-NH2 (lactam 20-24; not fully specified (residue 10); printed as HsQGTFTSDK(γEγEC16)SKYLDARAAK*DFVE*WLLDT-NH2) [TP707] | 0.1 nM | 0.17 nM |
| H[Aib]QGTFTSDKSKYLDKRAAEDFVQWL[Met(O2)]DTK(γGlu)-NH2 (lactam 16-20; not fully specified (residue 10); printed as HUQGTFTSDK(γEγEC16)SKYLDK*RAAE*DFVQWL2DTKγE-NH2) [TP844] | 0.046 nM | 0.022 nM |
| H[dS]QGTFTSDKSKYLDAKAAQEFVQWLLDT-NH2 (lactam 17-21; not fully specified (residue 10); printed as HsQGTFTSDK(γEγEC16)SKYLDAK*AAQE*FVQWLLDT-NH2) [TP710] | 0.06 nM | 0.07 nM |
| H[Aib]QGTFTSDKSKYLDKRAAEDFVQWL[Nle]DT-NH2 (lactam 16-20; not fully specified (residue 10); printed as HUQGTFTSDK(γEγEC16)SKYLDK*RAAE*DFVQWL-Nle-DT-NH2) [TP836] | 0.281 nM | 0.198 nM |
| H[Aib]QGTFTSDKSKYLD[Aib]KAAQEFVQWL[Nle]DT-NH2 (lactam 17-21; not fully specified (residue 10); printed as HUQGTFTSDK(γEγEC16)SKYLDUK*AAQE*FVQWL-Nle-DT-NH2) [TP840] | 0.212 nM | 0.17 nM |
